Source: patent US20040115622A1
pIC50: −log10 of the molar value.

Tests used:
[1] = molecular target: HLA-DR molecule encoded by the allele DRB1*0101 (human); assay: competition ELISA vs biotinylated HA 306-318
[2] = molecular target: HLA-DR molecule encoded by the allele DRB1*1501 (human); assay: competition ELISA vs biotinylated A3 152-166
[3] = molecular target: HLA-DR molecule encoded by the allele DRB1*0401 (human); assay: competition ELISA vs biotinylated HA 306-318
[4] = molecular target: HLA-DR molecule encoded by the allele DRB5*0101 (human); assay: competition ELISA vs biotinylated HA 306-318
[5] = molecular target: HLA-DR molecule encoded by the allele DRB4*0101 (human); assay: competition ELISA vs biotinylated E2/E168
[6] = molecular target: HLA-DR molecule encoded by the allele DRB1*0701 (human); assay: competition ELISA vs biotinylated YKL

Question: What does the source list for “Nef4.2 peptide (positions 68-82 of the HIV-1 Nef protein, Bru strain) (from UniProt P03406 68-82) (peptide; other documents disagree on this pair)”?
Answer: pIC50 [1]: 6.60; pIC50 [2]: 5.15

Question: With “Nef4.1 peptide (positions 66-80 of the HIV-1 Nef protein, Bru strain) (from UniProt P03406 66-80) (peptide; other documents disagree on this pair)” as the substance, how does the pIC50 [1] read?
Answer: Its pIC50 is 5.82.

Question: With “Nef4.3 peptide (positions 72-86 of the HIV-1 Nef protein, Bru strain) (from UniProt P03406 72-86) (peptide; other documents disagree on this pair)” as the substance, how does the pIC50 [3] read?
Answer: Its pIC50 is 5.70.

Question: And the pIC50 [1]?
Answer: Its pIC50 is 5.70.

Question: What about the pIC50 [4] of the same substance?
Answer: The pIC50 was 5.82.

Question: What about the pIC50 [5] of the same substance?
Answer: Its pIC50 is 5.61.

Question: And the pIC50 [2]?
Answer: The pIC50 was 5.71.

Question: How did the pIC50 [3] turn out when “Nef4.4 peptide (positions 74-88 of the HIV-1 Nef protein, Bru strain) (from UniProt P03406 74-88) (peptide; other documents disagree on this pair)” was run?
Answer: The pIC50 was 6.65.

Question: What about the pIC50 [1] of the same substance?
Answer: Its pIC50 is 6.46.

Question: What about the pIC50 [4] of the same substance?
Answer: Its pIC50 is 6.15.

Question: What about the pIC50 [5] of the same substance?
Answer: The pIC50 was 6.26.

Question: What about the pIC50 [2] of the same substance?
Answer: The pIC50 was 6.18.

Question: What does the source list for “Nef4.5 peptide (positions 77-91 of the HIV-1 Nef protein, Bru strain) (from UniProt P03406 77-91) (peptide; other documents disagree on this pair)”?
Answer: pIC50 [3]: 7.22; pIC50 [1]: 7.92; pIC50 [4]: 7.55; pIC50 [2]: 5.88

Question: Which results are given for “Nef4 peptide (positions 66-94 of the HIV-1 Nef protein, Bru strain) (from UniProt P03406 66-94) (peptide; other documents disagree on this pair)”?
Answer: pIC50 [3]: 7.35; pIC50 [1]: 7.26; pIC50 [4]: 7.92; pIC50 [6]: 5.30; pIC50 [5]: 6.65; pIC50 [2]: 6.12

Question: What does the source list for “Nef4.6 peptide (positions 79-93 of the HIV-1 Nef protein, Bru strain) (from UniProt P03406 79-93) (peptide; other documents disagree on this pair)”?
Answer: pIC50 [3]: 6.82; pIC50 [1]: 7.26; pIC50 [4]: 7.35
